The term % inhibition denotes how much of the control response was suppressed. High values mean strong suppression, low ones little suppression.

The target in the assay is Tryptase, from human lung (human) (UniProt Q15661). Nature of the assay: enzyme inhibition, pNA substrate.
Chain of Tryptase, from human lung (human) (Q15661 31-275 limits assumed): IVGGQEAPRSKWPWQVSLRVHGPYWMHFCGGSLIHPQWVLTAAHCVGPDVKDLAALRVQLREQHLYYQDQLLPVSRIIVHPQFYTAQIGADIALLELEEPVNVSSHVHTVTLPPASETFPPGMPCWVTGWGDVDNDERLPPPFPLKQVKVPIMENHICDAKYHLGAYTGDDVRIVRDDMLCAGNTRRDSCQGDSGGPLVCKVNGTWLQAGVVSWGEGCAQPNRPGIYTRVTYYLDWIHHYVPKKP

B1: Example 93 (peptide)
peptide: XCTASIPPQCS
HELM: PEPTIDE1{[Nle].C.T.A.S.I.P.P.Q.C.S.[dP].P}$PEPTIDE1,PEPTIDE1,2:R3-10:R3|PEPTIDE1,PEPTIDE1,1:R1-13:R2$$$V2.0
SMILES: CCCC[C@@H]1NC(=O)[C@@H]2CCCN2C(=O)[C@H]2CCCN2C(=O)[C@H](CO)NC(=O)[C@@H]2CSSC[C@H](NC1=O)C(=O)N[C@@H]([C@@H](C)O)C(=O)N[C@@H](C)C(=O)N[C@@H](CO)C(=O)N[C@@H]([C@@H](C)CC)C(=O)N1CCC[C@H]1C(=O)N1CCC[C@H]1C(=O)N[C@@H](CCC(N)=O)C(=O)N2
In the case of B1, the % inhibition at 100 µM came to 5.6%.

The record behind these values is patent US20140213531A1.
